Data: US20160114000A1 (Merck Sharp & Dohme, published 2016)
*1 amine or outer side, *2 acyl side, *3 side chain or, on linkers, in order; H or OH if unused. Where no end group is shown, it is not given here. Side-chain parts run from the residue outwards. [ ]: non-standard residue; d: D form. The star is where a group is joined. γGlu = O=C(O)[C@H](CCC(=O)[*:2])N[*:1]; Palmitoyl = CCCCCCCCCCCCCCCC(=O)*; Ac4c = NC1(C(=O)O)CCC1

Legend:
[1] = system: diet-induced obese (DIO) mice (strain C57Bl6/NTac); assay: Cumulative body weight change (grams) in DIO mice, Example 18; type: in vivo; conditions: 9 nmol/kg daily, day 9
Experimental: Mice were administered a vehicle control or a dose of a peptide daily for nine days. […] The peptide of SEQ ID NO: 9 was administered at doses of 9 and 25 nmol/kg. Cumulative body weight change (grams) was measured each day of the study except on day 3. Results are shown in FIG. 1 and are expressed as mean±SEM.

[2] = system: DIO mice (strain C57Bl6/NTac); assay: Body weight change (%) relative to vehicle in DIO mice, second study, Example 19; type: in vivo; conditions: eight days
Experimental: In addition, the peptide of SEQ ID NO: 8 was administered at 15 nmol/kg, while the peptide of SEQ ID NOs: 10 and 11 were administered at 3 nmol/kg. Body weight was measured daily for eight days and body weight change is expressed as percent relative to vehicle (FIG. 2).

[3] = system: DIO mice (strain C57Bl6/NTac); assay: Ambient glucose levels in DIO mice, Example 21; type: in vivo; conditions: 9 nmol/kg
Experimental: In addition to cumulative body weight change, ambient glucose levels of the DIO mice (strain C57Bl6/NTac) were measured periodically throughout the study.

human GCGR = biological target: T1, human GCGR (Homo sapiens, UniProt P47871); assay: cAMP protocol, cells expressing human GCGR; type: cell-based; conditions: ratio of EC50 at human GCGR to EC50 at human GLP1R
T1 construct: expressed in transfected cells; grown under Geneticin and Hygromycin selection
T1 sequence (P47871 26-477): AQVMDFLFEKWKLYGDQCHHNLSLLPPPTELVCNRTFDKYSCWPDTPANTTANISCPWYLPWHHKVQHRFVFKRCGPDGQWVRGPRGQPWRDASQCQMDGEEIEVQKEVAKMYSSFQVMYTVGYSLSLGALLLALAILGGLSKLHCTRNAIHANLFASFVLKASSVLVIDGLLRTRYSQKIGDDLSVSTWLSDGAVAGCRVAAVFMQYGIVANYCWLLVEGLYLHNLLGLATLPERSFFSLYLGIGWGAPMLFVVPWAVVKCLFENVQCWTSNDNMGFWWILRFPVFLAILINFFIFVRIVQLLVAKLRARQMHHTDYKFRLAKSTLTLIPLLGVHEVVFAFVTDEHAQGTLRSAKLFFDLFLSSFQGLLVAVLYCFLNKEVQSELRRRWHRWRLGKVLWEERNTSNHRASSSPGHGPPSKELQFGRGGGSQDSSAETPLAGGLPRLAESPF
Experimental: The cAMP protocol was as follows.
Peptides were dissolved in 100% DMSO and serially diluted to generate 11 point titrations. The peptide solutions were then transferred into 384-well assay plates (150 nL/well). Assay ready frozen cells expressing human GLP-1R or human GCGR were suspended in growth media consisting of DMEM/F12 medium (GIBCO), 10% FBS (GIBCO), lx P/S (GIBCO), 800 μg/mL Geneticin (GIBCO), and 300 μg/mL Hygromycin (Invitrogen). Cells were then diluted in assay buffer consisting of PBS (GIBCO), 7.5% BSA (Perkin Elmer), 100 μM RO 20-1724 (Sigma), and 20% human serum (MP Biomedical). The cell suspensions (15 μL) were then added to the assay plates containing the peptide solutions (30,000 cells/well for human GCGR; 20,000 cells/well for GLP1R). The cells were incubated for 1 hour at room temperature in the dark. Production of cAMP was determined using HitHunter™ cAMPXS kits (DiscoverX). ED buffer (20 μL) was then added to each well and the plates were incubated for 1 hour at room temperature in the dark. Subsequently, EA buffer (20 μL) was added to each well, and the plates were incubated for 1-18 hours at room temperature in the dark. Luminescence was measured using an EnVision Multilabel plate reader (Perkin Elmer). EC50 values were calculated using ADA data analyzer software.

human glucagon receptor = human glucagon receptor (human, UniProt P47871 26-477); assay: cell-based or functional assay
Sequence of human glucagon receptor (P47871 26-477): as above

human GLP-1 receptor = human GLP-1 receptor (human, UniProt P43220 24-463); assay: cell-based or functional assay

With CCCCCCCCCCCCCCCC(=O)N[C@@H](CCC(=O)NCCCC[C@H](NC(=O)[C@H](CC(=O)O)NC(=O)[C@H](CO)NC(=O)[C@@H](NC(=O)[C@H](Cc1ccccc1)NC(=O)[C@@H](NC(=O)CNC(=O)[C@H](CCC(N)=O)NC(=O)[C@@H](CO)NC(=O)[C@@H](N)Cc1c[nH]cn1)[C@@H](C)O)[C@@H](C)O)C(=O)N[C@@H](CO)C(=O)N[C@@H](CCCCN)C(=O)N[C@@H](Cc1ccc(O)cc1)C(=O)N[C@@H](CC(C)C)C(=O)N[C@@H](CC(=O)O)C(=O)N[C@@H](C)C(=O)N[C@@H](CCCNC(=N)N)C(=O)N[C@@H](C)C(=O)N[C@@H](C)C(=O)N[C@@H](CCC(N)=O)C(=O)N[C@@H](CC(=O)O)C(=O)N[C@@H](Cc1ccccc1)C(=O)N[C@H](C(=O)N[C@@H](CCC(N)=O)C(=O)N[C@@H](Cc1c[nH]c2ccccc12)C(=O)N[C@@H](CC(C)C)C(=O)N[C@@H](CC(C)C)C(=O)N[C@@H](CC(=O)O)C(=O)N[C@H](C(N)=O)[C@@H](C)O)C(C)C)C(=O)O [SEQ ID NO: 6] the weight loss [1] was 10.5 grams, the “weight loss, percent relative to vehicle” value ([2]; 9 nmol/kg daily) was “approximately 20%” and the “decrease in ambient glucose compared to vehicle” value ([3]; day 7 of dosing) was -60 mg/dL. For the same molecule, the “hGCGR/hGLP1R (hTone)” value (human GCGR) was 0.88.

In the case of CCCCCCCCCCCCCCCC(=O)N[C@@H](CCC(=O)N[C@@H](CCC(=O)NCCCC[C@H](NC(=O)[C@H](CC(=O)O)NC(=O)[C@H](CO)NC(=O)[C@@H](NC(=O)[C@H](Cc1ccccc1)NC(=O)[C@@H](NC(=O)CNC(=O)[C@H](CCC(N)=O)NC(=O)[C@@H](CO)NC(=O)[C@@H](N)Cc1c[nH]cn1)[C@@H](C)O)[C@@H](C)O)C(=O)N[C@@H](CO)C(=O)N[C@@H](CCCCN)C(=O)N[C@@H](Cc1ccc(O)cc1)C(=O)N[C@@H](CC(C)C)C(=O)N[C@@H](CC(=O)O)C(=O)N[C@H](C(=O)N[C@@H](CCCNC(=N)N)C(=O)N[C@@H](C)C(=O)N[C@@H](C)C(=O)N[C@@H](CCC(N)=O)C(=O)N[C@@H](CC(=O)O)C(=O)N[C@@H](Cc1ccccc1)C(=O)N[C@H](C(=O)N[C@@H](CCC(N)=O)C(=O)N[C@@H](Cc1c[nH]c2ccccc12)C(=O)N[C@@H](CC(C)C)C(=O)N[C@@H](CC(C)C)C(=O)N[C@@H](CC(=O)O)C(=O)N[C@H](C(N)=O)[C@@H](C)O)C(C)C)C(C)C)C(=O)O)C(=O)O [SEQ ID NO: 8], the weight loss [1] is reported as 8 grams, the “weight loss, percent relative to vehicle” value ([2]; 9 nmol/kg daily) is reported as “approximately 17%” and the “weight loss, percent relative to vehicle” value ([2]; 15 nmol/kg daily) is reported as “approximately 25%”. For the same molecule, the “decrease in ambient glucose compared to vehicle” value ([3]; day 9) was -72 mg/dL and the “hGCGR/hGLP1R (hTone)” value (human GCGR) was 0.60.

B1: Co-agonist Peptide 8 (peptide)
peptide: H[dS]QGTFTSDK([γGlu-γGlu-Palmitoyl])SKYLEARAAQDFVQWLLDT-NH2
modifications: N-terminus assumed
SMILES: CCCCCCCCCCCCCCCC(=O)N[C@@H](CCC(=O)N[C@@H](CCC(=O)NCCCC[C@H](NC(=O)[C@H](CC(=O)O)NC(=O)[C@H](CO)NC(=O)[C@@H](NC(=O)[C@H](Cc1ccccc1)NC(=O)[C@@H](NC(=O)CNC(=O)[C@H](CCC(N)=O)NC(=O)[C@@H](CO)NC(=O)[C@@H](N)Cc1c[nH]cn1)[C@@H](C)O)[C@@H](C)O)C(=O)N[C@@H](CO)C(=O)N[C@@H](CCCCN)C(=O)N[C@@H](Cc1ccc(O)cc1)C(=O)N[C@@H](CC(C)C)C(=O)N[C@@H](CCC(=O)O)C(=O)N[C@@H](C)C(=O)N[C@@H](CCCNC(=N)N)C(=O)N[C@@H](C)C(=O)N[C@@H](C)C(=O)N[C@@H](CCC(N)=O)C(=O)N[C@@H](CC(=O)O)C(=O)N[C@@H](Cc1ccccc1)C(=O)N[C@H](C(=O)N[C@@H](CCC(N)=O)C(=O)N[C@@H](Cc1c[nH]c2ccccc12)C(=O)N[C@@H](CC(C)C)C(=O)N[C@@H](CC(C)C)C(=O)N[C@@H](CC(=O)O)C(=O)N[C@H](C(N)=O)[C@@H](C)O)C(C)C)C(=O)O)C(=O)O
With B1 the “GCGR EC50 (nM) human; cAMP production (HitHunter cAMPXS), 20% human serum” value (“GCGR EC50 (nM) human … 20% human serum” for short) (human glucagon receptor) was 0.02 nM, the “hGCGR/hGLP1R (hTone): ratio of cAMP EC50 at human GCGR to cAMP EC50 at human GLP1R” value (“hGCGR/hGLP1R (hTone): ratio of cAMP EC50” for short) (human glucagon receptor) was 0.9 ratio and the “GLPR1 EC50 (nM) human; cAMP production (HitHunter cAMPXS), 20% human serum” value (“GLPR1 EC50 (nM) human … 20% human serum” for short) (human GLP-1 receptor) was 0.02 nM.

B2: Co-agonist Peptide 9 (peptide)
peptide: HXQGTXTSDKSKYLDERAAQDFVQWLLDT
modifications: D-Ser at 2; p-fluorophenylalanine (pFF) at 6; Lys 10 conjugated to γEγE-C16 (palmitoyl); C-terminal amide
In the case of B2, the “GCGR EC50 (nM) human … 20% human serum” value (human glucagon receptor) is reported as 0.05 nM, the “hGCGR/hGLP1R (hTone): ratio of cAMP EC50” value (human glucagon receptor) is reported as 0.93 ratio and the “GLPR1 EC50 (nM) human … 20% human serum” value (human GLP-1 receptor) is reported as 0.06 nM.

B3: Co-agonist Peptide 10 (peptide)
peptide: HXQGTFTSDKSKYLDERAAQDFVQWLXDT
modifications: D-Ser at 2; Lys 10 conjugated to γEγE-C16 (palmitoyl); methionine sulfone at 27; C-terminal amide
In the case of B3, the “GCGR EC50 (nM) human … 20% human serum” value (human glucagon receptor) is reported as 0.02 nM, the “hGCGR/hGLP1R (hTone): ratio of cAMP EC50” value (human glucagon receptor) is reported as 1.1 ratio and the “GLPR1 EC50 (nM) human … 20% human serum” value (human GLP-1 receptor) is reported as 0.02 nM.

B4: Co-agonist Peptide 11 (peptide)
peptide: H[dS]QGTFTSDK([γGlu-γGlu-Palmitoyl])SLYLDERAAQDFVQWLLDT-NH2
modifications: N-terminus assumed
SMILES: CCCCCCCCCCCCCCCC(=O)N[C@@H](CCC(=O)N[C@@H](CCC(=O)NCCCC[C@H](NC(=O)[C@H](CC(=O)O)NC(=O)[C@H](CO)NC(=O)[C@@H](NC(=O)[C@H](Cc1ccccc1)NC(=O)[C@@H](NC(=O)CNC(=O)[C@H](CCC(N)=O)NC(=O)[C@@H](CO)NC(=O)[C@@H](N)Cc1c[nH]cn1)[C@@H](C)O)[C@@H](C)O)C(=O)N[C@@H](CO)C(=O)N[C@@H](CC(C)C)C(=O)N[C@@H](Cc1ccc(O)cc1)C(=O)N[C@@H](CC(C)C)C(=O)N[C@@H](CC(=O)O)C(=O)N[C@@H](CCC(=O)O)C(=O)N[C@@H](CCCNC(=N)N)C(=O)N[C@@H](C)C(=O)N[C@@H](C)C(=O)N[C@@H](CCC(N)=O)C(=O)N[C@@H](CC(=O)O)C(=O)N[C@@H](Cc1ccccc1)C(=O)N[C@H](C(=O)N[C@@H](CCC(N)=O)C(=O)N[C@@H](Cc1c[nH]c2ccccc12)C(=O)N[C@@H](CC(C)C)C(=O)N[C@@H](CC(C)C)C(=O)N[C@@H](CC(=O)O)C(=O)N[C@H](C(N)=O)[C@@H](C)O)C(C)C)C(=O)O)C(=O)O
For B4, the “GCGR EC50 (nM) human … 20% human serum” value (human glucagon receptor) was 0.06 nM, the “hGCGR/hGLP1R (hTone): ratio of cAMP EC50” value (human glucagon receptor) was 0.91 ratio and the “GLPR1 EC50 (nM) human … 20% human serum” value (human GLP-1 receptor) was 0.06 nM.

B5: Co-agonist Peptide 12 (peptide)
peptide: HXQGTFTSDXSKYLDARAAQDFVQWLLDT
modifications: D-Ser at 2; para-aminomethyl phenylalanine (pAF) at 10 conjugated to γEγE-C16 (palmitoyl); C-terminal amide
With B5 the “GCGR EC50 (nM) human … 20% human serum” value (human glucagon receptor) was 0.05 nM, the “hGCGR/hGLP1R (hTone): ratio of cAMP EC50” value (human glucagon receptor) was 0.98 ratio and the “GLPR1 EC50 (nM) human … 20% human serum” value (human GLP-1 receptor) was 0.05 nM.

B6: Co-agonist Peptide 13 (peptide)
peptide: H[Ac4c]QGTFTSDK([γGlu-γGlu-Palmitoyl])SKYLDERAAQDFVQWLLDT-NH2
modifications: N-terminus assumed
SMILES: CCCCCCCCCCCCCCCC(=O)N[C@@H](CCC(=O)N[C@@H](CCC(=O)NCCCC[C@H](NC(=O)[C@H](CC(=O)O)NC(=O)[C@H](CO)NC(=O)[C@@H](NC(=O)[C@H](Cc1ccccc1)NC(=O)[C@@H](NC(=O)CNC(=O)[C@H](CCC(N)=O)NC(=O)C1(NC(=O)[C@@H](N)Cc2c[nH]cn2)CCC1)[C@@H](C)O)[C@@H](C)O)C(=O)N[C@@H](CO)C(=O)N[C@@H](CCCCN)C(=O)N[C@@H](Cc1ccc(O)cc1)C(=O)N[C@@H](CC(C)C)C(=O)N[C@@H](CC(=O)O)C(=O)N[C@@H](CCC(=O)O)C(=O)N[C@@H](CCCNC(=N)N)C(=O)N[C@@H](C)C(=O)N[C@@H](C)C(=O)N[C@@H](CCC(N)=O)C(=O)N[C@@H](CC(=O)O)C(=O)N[C@@H](Cc1ccccc1)C(=O)N[C@H](C(=O)N[C@@H](CCC(N)=O)C(=O)N[C@@H](Cc1c[nH]c2ccccc12)C(=O)N[C@@H](CC(C)C)C(=O)N[C@@H](CC(C)C)C(=O)N[C@@H](CC(=O)O)C(=O)N[C@H](C(N)=O)[C@@H](C)O)C(C)C)C(=O)O)C(=O)O
For B6, the “GCGR EC50 (nM) human … 20% human serum” value (human glucagon receptor) was 0.06 nM, the “hGCGR/hGLP1R (hTone): ratio of cAMP EC50” value (human glucagon receptor) was 1.25 ratio and the “GLPR1 EC50 (nM) human … 20% human serum” value (human GLP-1 receptor) was 0.05 nM.

B7: Co-agonist Peptide 3 (peptide)
peptide: H[dS]QGTFTSDK([γGlu-γGlu-Palmitoyl])SKYLDVRAAQDFVQWLLDT-NH2
modifications: N-terminus assumed
SMILES: CCCCCCCCCCCCCCCC(=O)N[C@@H](CCC(=O)N[C@@H](CCC(=O)NCCCC[C@H](NC(=O)[C@H](CC(=O)O)NC(=O)[C@H](CO)NC(=O)[C@@H](NC(=O)[C@H](Cc1ccccc1)NC(=O)[C@@H](NC(=O)CNC(=O)[C@H](CCC(N)=O)NC(=O)[C@@H](CO)NC(=O)[C@@H](N)Cc1c[nH]cn1)[C@@H](C)O)[C@@H](C)O)C(=O)N[C@@H](CO)C(=O)N[C@@H](CCCCN)C(=O)N[C@@H](Cc1ccc(O)cc1)C(=O)N[C@@H](CC(C)C)C(=O)N[C@@H](CC(=O)O)C(=O)N[C@H](C(=O)N[C@@H](CCCNC(=N)N)C(=O)N[C@@H](C)C(=O)N[C@@H](C)C(=O)N[C@@H](CCC(N)=O)C(=O)N[C@@H](CC(=O)O)C(=O)N[C@@H](Cc1ccccc1)C(=O)N[C@H](C(=O)N[C@@H](CCC(N)=O)C(=O)N[C@@H](Cc1c[nH]c2ccccc12)C(=O)N[C@@H](CC(C)C)C(=O)N[C@@H](CC(C)C)C(=O)N[C@@H](CC(=O)O)C(=O)N[C@H](C(N)=O)[C@@H](C)O)C(C)C)C(C)C)C(=O)O)C(=O)O
With B7 the “GCGR EC50 (nM) human … 20% human serum” value (human glucagon receptor) was 0.08 nM, the “hGCGR/hGLP1R (hTone): ratio of cAMP EC50” value (human glucagon receptor) was 0.6 ratio and the “GLPR1 EC50 (nM) human … 20% human serum” value (human GLP-1 receptor) was 0.13 nM.
